Test results from patent publication US10487337B2, “Methods for monocot plant improvement” (Agresearch Limited, priority 2014, dated 2019).

T1: BZR1 (Arabidopsis thaliana, UniProt Q8S307)
T1 construct: expressed in transfected cells; host or cells: Nicotiana benthamiana leaves (Agrobacterium infiltration)
T1 sequence (Q8S307 1-336): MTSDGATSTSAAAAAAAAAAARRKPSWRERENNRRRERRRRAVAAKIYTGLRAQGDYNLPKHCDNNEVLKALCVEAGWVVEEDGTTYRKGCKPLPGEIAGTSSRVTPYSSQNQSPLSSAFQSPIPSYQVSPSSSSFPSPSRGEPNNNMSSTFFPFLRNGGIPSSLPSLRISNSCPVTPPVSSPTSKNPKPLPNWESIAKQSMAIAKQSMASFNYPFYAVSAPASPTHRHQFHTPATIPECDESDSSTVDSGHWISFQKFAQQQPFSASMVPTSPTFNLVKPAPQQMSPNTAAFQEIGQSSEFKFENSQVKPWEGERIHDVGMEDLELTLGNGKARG

T2: BZR1 (Arabidopsis thaliana, UniProt Q8S307)
T2 construct: expressed in transfected cells; host or cells: yeast strain MaV203
T2 sequence (Q8S307 with tags, fused parts or gaps): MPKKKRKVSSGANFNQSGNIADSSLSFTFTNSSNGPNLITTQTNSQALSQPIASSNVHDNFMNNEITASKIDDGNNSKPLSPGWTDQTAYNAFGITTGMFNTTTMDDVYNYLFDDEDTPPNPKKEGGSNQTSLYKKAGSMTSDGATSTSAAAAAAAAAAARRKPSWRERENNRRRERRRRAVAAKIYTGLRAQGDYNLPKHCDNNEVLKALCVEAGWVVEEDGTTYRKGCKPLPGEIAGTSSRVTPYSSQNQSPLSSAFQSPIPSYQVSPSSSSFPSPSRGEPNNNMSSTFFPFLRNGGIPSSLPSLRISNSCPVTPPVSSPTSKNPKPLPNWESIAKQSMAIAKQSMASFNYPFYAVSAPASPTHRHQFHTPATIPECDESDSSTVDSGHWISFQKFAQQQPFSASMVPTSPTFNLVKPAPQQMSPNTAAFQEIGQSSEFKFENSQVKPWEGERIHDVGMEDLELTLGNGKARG


Legend:
BZR1 [1] = target: T1, BZR1; assay: BiFC interaction with BZR1 in Nicotiana benthamiana leaves; assay type: cell-based; details: fully expanded leaves, co-expressed with cYFP-BZR1
Source text: The binary BiFC-Gateway YFP vectors pDEST-VYNE(R)^GW (Venus aa 1-173) and pDEST-VYCE(R)^GW (Venus aa 156-239) with N-terminal fusions, were used to construct the following vectors; pDESTnYFP-BZR1, pDESTnYFP-NINJA, pDESTnYFP-PPD1, pDESTcYFP-BZR1, pDESTcYFP-PPD1, pDESTcYFP-PPD1Δppd, pDESTcYFP-PPD1Δtify and pDESTcYFP-PPD1Δjas*. For transient in planta expression of proteins interacting with PPD1 or BZR, NINJA and TPL were Gateway® sub-cloned into pRSh1, to construct pRSh1-NINJA and pRSh1-TPL. Plasmids for co-immunoprecipitation: A synthesised DNA construct encoding PPD1 with a 3×c-myc C-terminal fusion was sub-cloned into pRSh1 to produce pRSh1-PPD1-3×c-myc, while the NINJA cDNA sequence was sub-cloned into pB7FWG2,0 (Karimi et al 2002, Trends Plant Sci. 7, 193-195) to construct pB7FWG2-NINJA-GFP. When expressed these constructs produced proteins listed in sequences 60, 62, 70 71 72 73 74 75 76 77 78 79: including TOPLESS (TPL), NINJA, Bimolecular Fluorescence (BiFC) nYFP, BiFC cYFP, BiFC nYFP-NINJA, BiFC nYFP-BZR1, BiFC cYFP-PPD1, BiFC cYFP-NINJA, BiFC cYFP-BZR1, BiFC cYFP-PPD1-ppd, BiFC cYFP-PPD1-tify, BiFC cYFP-PPD1-jas*.
Transient BiFC experiments were performed using combinations of pDESTnYFP and pDESTcYFP plasmids, with or without plasmids for the expression of NINJA (pRSh1-NINJA) or TPL (pRSh1-TPL) and Agrobacterium-infiltration of Nicotiana benthamiana leaves. For infiltration Agrobacterium tumefaciens GV3101 strains containing the binary vectors were re-suspended from plates and prepared for transformation as described for the LUC assay. All YFP and expression strains were mixed in ratios of 1:1 (vol/vol) with the addition of strain P19 at 1/10th volume. Five leaf discs were sampled from each infiltrated leaf after 40 h. Two hours prior to sampling for microscopic fluorescence observations leaves were infiltrated with a 1 μg/ml DAPI solution to stain nuclei. YFP fluorescence and DAPI staining was detected using an Olympus Fluoview FV10i confocal laser scanning microscope. Each experiment was repeated twice.

BZR1 [2] = target: T2, BZR1; assay: Yeast two hybrid (Y2H) interaction with BZR1; assay type: binding
Source text: The constructs for Y2H and BiFC assays were generated as follows. Arabidopsis DNA sequences encoding the open reading frames for; At4g14713 (PPD1) and truncation and deletion derivatives of PPD1: PPD1; PPD1Δppd (N-terminal truncation of sequences encoding aa 1-61), PPD1Δtify, (internal deletion of sequences encoding aa 154-186), PPD1Δjas*(C-terminal truncation of sequences encoding aa 229-313) (FIG. 5), At4g28910 (NINJA), At1g15750 (TPL), At1g75080 (BZR1), a synthetic PUAS-35S promoter, and sequences encoding GAL4DBD and c-myc fusion proteins were synthesised and sequence verified by GeneArt. Most sequences were supplied as clones in pENTR221 ready for Gateway cloning into yeast and plant expression vectors. The exception, a promoter sequence for in planta transcription activation assays, incorporating 5′ Xho1 and 3′ Nco1 restriction enzyme sites, was supplied cloned in pMA-RQ. Plasmids for the transient LUC reporter assay: A synthetic promoter with 5×UAS GAL4 DNA binding sites upstream of a −105 bp CaMV35S promoter was cloned into the XhoI-NcoI sites within a dual luciferase construct pNWA62, which contains an intron-containing Firefly Luciferase gene (LUC) and 35Spro::Renilla Luciferase (REN) as an internal standard, to construct pAML7. […]

Molecule	interaction with BZR1 (BZR1 [1])	interaction with BZR1 (BZR1 [2])
nYFP-PPD1: BiFC fusion of PPD1 with the N-terminal Venus YFP fragment	no interaction was observed	–
TPL: TOPLESS transcriptional co-repressor of Arabidopsis, SEQ ID NO: 60 (protein, Consensus sequence) MSSLSRELVFLILQFLDEEKFKETVHKLEQESGFFFNMKYFEDEVHNGNWDEVEKYLSGFTKVDDNRYSMKIFFEIRKQKYLEALDKHDRPKAVDILVKDLKVFSTFNEELFKEITQLLTLENFRENEQLSKYGDTKSARAIMLVELKKLIEANPLFRDKLQFPTLRNSRLRTLINQSLNWQHQLCKNPRPNPDIKTLFVDHSCGPPNGARAPSPVNNPLLGGIPKAGGFPPLGAHGPFQPTASPVPTPLAGWMSSPSSVPHPAVSAGAIALGGPSIPAALKHPRTPPTNASLDYPSADSEHVSKRTRPMGISDEVNLGVNMLPMSFSGQAHGHSPAFKAPDDLPKTVARTLSQGSSPMSMDFHPIKQTLLLVGTNVGDIGLWEVGSRERLVQKTFKVWDLSKCSMPLQAALVKEPVVSVNRVIWSPDGSLFGVAYSRHIVQLYSYHGGEDMRQHLEIDAHVGGVNDISFSTPNKQLCVITCGDDKTIKVWDAATGVKRHTFEGHEAPVYSVCPHYKENIQFIFSTALDGKIKAWLYDNMGSRVDYDAPGRWCTTMAYSADGTRLFSCGTSKDGESFIVEWNESEGAVKRTYQGFHKRSLGVVQFDTTKNRYLAAGDDFSIKFWDMDAVQLLTAIDGDGGLQASPRIRFNKEGSLLAVSGNENVIKIMANSDGLRLLHTFENISSESSKPAINSIAAAAAAAATSAGHADRSANVVSIQGMNGDSRNMVDVKPVITEESNDKSKIWKLTEVSEPSQCRSLRLPENLRVAKISRLIFTNSGNAILALASNAIHLLWKWQRNERNATGKATASLPPQQWQPASGILMTNDVAETNPEEAVPCFALSKNDSYVMSASGGKISLFNMMTFKTMATFMPPPPAATFLAFHPQDNNIIAIGMDDSTIQIYNVRVDEVKSKLKGHSKRITGLAFSNVLNVLVSSGADAQLCVWNTDGWEKQRSKVLPLPQGRPNSAPSDTRVQFHQDQAHFLVVHETQLAIYETTKLECMKQWAVRESLAPITHATFSCDSQLVYASFMDATVCVFSSANLRLRCRVNPSAYLPASLSNSNVHPLVIAAHPQEPNMFAVGLSDGGVHIFEPLESEGKWGVAPPAENGSASGAPTAPSVGASASDQPQR	–	direct interaction occurs
